From PMC4888247 come the findings set out here.

Where “and” joins values, the source holds several entries; their conditions need not be identical. Equal values may be shown once.

Test [1] has as its target human S100A8 (human) (UniProt P05109). The test can be described thus: SEC; 24 ml Superdex 75, 20 mM HEPES pH 7.5, 200 mM NaCl, 5 mM CaCl2 (calcium only, no zinc); sizes from a calibration curve with protein standards. For orientation: In gel filtration, larger molecules generally elute earlier.
Test [2] shares this target. Nature of the test: crystal structure; crystal form 1, P212121, 2.2 A; Zn2+/Ca2+-bound (3 mM ZnCl2 added); 0.2 M ammonium acetate, 0.1 M Na acetate pH 4.0, 15 % PEG 3350, 0.4 % 2,2,2-trifluoroethanol; eight molecules per asymmetric unit.
For test [3] the target is unchanged. The test can be described thus: crystal structure; crystal form 2, C2221, 2.1 A; Zn2+/Ca2+-bound with a (Zn)2-cacodylate complex; 5 mM ZnCl2, 0.1 M Na cacodylate pH 6.5, 8 % PEG 8000; four molecules per asymmetric unit.

By stoichiometry N is commonly meant a count of units in the complex or per binding partner. Turning to “human S100A8 (from UniProt P05109 2-93) (natural protein)”, the stoichiometry N with human S100A8 (human) [1] is 4 and 2; with human S100A8 (human) [2], 4; with human S100A8 (human) [3], 4.
